The values below come from patent US10919943B2, “Mutant proteins enabling agrochemical control of plant gene expression” (The Regents of the University of California, priority 2016, dated 2021).

The target in assay [1] is T1, HAB1^! (Arabidopsis thaliana, UniProt O49686+Q9CAJ0, F108A/F159L/K59R/S122G/T162D/V393R/V81I/Y58H).
T1 construct: expressed in transfected cells
Put plainly: Yeast two hybrid, mandipropamid-promoted interaction of PYR1 variants with HAB1^!
The format is cell-based. The conditions noted are these: FIG. 3. An excerpt: (§1) To engineer orthogonal mandipropamid responsiveness, we introduced the PYR1^! mutation into the PYR1^MANDI receptor to create a septuple mutant called PYR1^!-MANDI (PYR1^Y58H;K59R;V81I;F108A;S122G;F159L;T162D). This mutant interacts with HAB1^! and HAB^!-2 in response to low μM mandipropamid in yeast two-hybrid assays, but is ˜100-fold less sensitive than the PYR1^MANDI/HAB1 interaction, which responds to concentrations in the low nM range (FIG. 3).

Assay [2] has as its system HAB1^!-2. Put plainly: Yeast two hybrid, mandipropamid-promoted interaction of PYR1 variants with HAB1^!-2. The format is cell-based. The note with it: FIG. 3, FIG. 4.
Source text: as §1
To improve sensitivity, we mutagenized ligand contacting and interface residues in PYR1^!-MANDI using NNK primers, pooled the mutant libraries, and used the mutagenized receptors in selection experiments using to identify enhancer mutations. The NNK mutagenesis screen targeted the following residues: P55, H60, F61, I62, K63, V83, S85, G86, L87, P88, A89, S92, E94, I110, H115, R116, L117, Y120, E141, P148, G150, N151, D154, D155, T156, M158, A160, V163, V164, L166, N167, and K170. […] Since M158 and A160 flank the […] mutation present in PYR1^MANDI, we inferred that the closely located orthogonalizing T162D mutation in PYR1^!-MANDI may have reduced mandipropamid sensitivity by altering the local structure of the C-terminal α3-helix, which participates in ligand-induced conformational changes needed for PP2C binding (Nishimura et al., 2009). We therefore simultaneously mutagenized positions M158, F159 and A160 using a primer with degenerate NNK codons at all three positions. F159 was included in this mutagenesis because we have previously observed that multiple substitutions at F159 (A,C,I,L,M,T, or V) are permissive for mandipropamid responsiveness (S. Y. Park et al., n.d.), and sought to test whether residues other than leucine at position 159 might function better in the context of simultaneous changes to both A160 and M158. The mutagenic primer was used in QuickChange mutagenesis reactions using pBD-PYR1^!-MANDI template, and a library of ˜12,000 clones was generated. Plasmid DNA for the library was prepared from pooled E. coli transformants, and subsequently transformed into S. cerevisiae strain MAV99 harboring pACT-HAB1^!-2. ˜20,000 yeast transformants were generated, pooled, and plated onto SD(-Leu,-Trp) agar media supplemented with 0.1% fluorotic acid (to select against mutants that interact in a ligand-independent fashion). The surviving cells were collected and plated onto SD(Leu,-Trp,-Ura) plates supplemented with 50 nM mandipropamid. The colonies displaying the best uracil-independent growth were isolated and retested on different mandipropamid concentrations and then stained in β-galactosidase assays to rank their relative strength.

For assay [3], the system named is Arabidopsis. Put plainly: Overexpression of HAB1^!-2 (35S::GFP-HAB1^!-2) in Arabidopsis, T1 plant phenotype. The format is in vivo. The source says: To investigate the effects of overexpressing HAB1^!-2 in Arabidopsis, we used Agrobacterium mediated transformation to generate 35S::GFP-HAB1^!-2 transgenic plants. HAB1^!-2 was cloned from pACT-HAB1^!-2 into pEGAD, a binary vector suitable for plant transformation, generating a 35S-driven GFP-HAB1^!-2 fusion protein. The clone was transformed into Agrobacterium and the floral dip method used to transform Arabidopsis. After selection of T0 seed on soil containing glufosinate, several T1 seedlings were identified. […] As an alternate strategy, we eliminated HAB1's catalytic activity by introducing a mutation in a conserved metal-ion binding residue (D204), which is homologous to D131A mutation in ABI1, previously shown to eliminate phosphatase activity without disrupting wild type receptor-ABI1 interactions (Liang et al., 2011). We used QuickChange mutagenesis to introduce the D204A mutation into pACT-HAB1^!-2, generating pACT-HAB1^!-3. When tested for mandipropamid induced interactions with pBD-PYR1*^-MANDI, HAB1^!-3 is ˜10-fold less sensitive to mandipropamid relative to HAB1^!-2 (FIG. 5).

T1 sequence (Q9CAJ0 4-511 V393R, one chain of several): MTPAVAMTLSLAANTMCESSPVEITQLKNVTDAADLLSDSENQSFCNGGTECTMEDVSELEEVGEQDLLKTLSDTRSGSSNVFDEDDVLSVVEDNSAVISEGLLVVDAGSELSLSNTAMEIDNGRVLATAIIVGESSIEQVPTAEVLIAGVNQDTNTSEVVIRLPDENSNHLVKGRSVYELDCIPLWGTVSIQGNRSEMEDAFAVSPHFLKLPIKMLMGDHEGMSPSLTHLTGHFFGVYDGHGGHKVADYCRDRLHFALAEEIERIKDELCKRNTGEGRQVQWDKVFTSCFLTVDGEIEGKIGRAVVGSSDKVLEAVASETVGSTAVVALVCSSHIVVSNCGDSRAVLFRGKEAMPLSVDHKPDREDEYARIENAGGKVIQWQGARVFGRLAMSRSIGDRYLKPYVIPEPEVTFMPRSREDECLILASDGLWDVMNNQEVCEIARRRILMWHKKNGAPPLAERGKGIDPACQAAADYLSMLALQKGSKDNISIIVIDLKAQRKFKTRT

B1: PYR1^!-MANDI: septuple PYR1 mutant (protein, UniProt O49686 1-191, looked up, variant Y58H K59R V81I F108A S122G F159L T162D)
Abscisic acid receptor PYR1: MPSELTPEERSELKNSIAEFHTYQLDPGSCSSLHAQRIHAPPELVWSIVRRFDKPQTHRHFIKSCSVEQNFEMRVGCTRDIIVISGLPANTSTERLDILDDERRVTGASIIGGEHRLTNYKGVTTVHRFEKENRIWTVVLESYVVDMPEGNSEDDTRMLADDVVKLNLQKLATVAEAMARNSGDGSGSQVT
As to B1, the “mandipropamid concentration to which the interaction responds” value in assay [1] and in assay [2] was “low μM” throughout.

B2: HAB1^!-2: HAB1 double mutant V393R, R505A (protein)
chain: MTPAVAMTLSLAANTMCESSPVEITQLKNVTDAADLLSDSENQSFCNGGTECTMEDVSELEEVGEQDLLKTLSDTRSGSSNVFDEDDVLSVVEDNSAVISEGLLVVDAGSELSLSNTAMEIDNGRVLATAIIVGESSIEQVPTAEVLIAGVNQDTNTSEVVIRLPDENSNHLVKGRSVYELDCIPLWGTVSIQGNRSEMEDAFAVSPHFLKLPIKMLMGDHEGMSPSLTHLTGHFFGVYDGHGGHKVADYCRDRLHFALAEEIERIKDELCKRNTGEGRQVQWDKVFTSCFLTVDGEIEGKIGRAVVGSSDKVLEAVASETVGSTAVVALVCSSHIVVSNCGDSRAVLFRGKEAMPLSVDHKPDREDEYARIENAGGKVIQWQGARVFGRLAMSRSIGDRYLKPYVIPEPEVTFMPRSREDECLILASDGLWDVMNNQEVCEIARRRILMWHKKNGAPPLAERGKGIDPACQAAADYLSMLALQKGSKDNISIIVIDLKAQAKFKTRT
modifications: left off: small tags and cut ends
notes: HAB1 double mutant V393R, R505A
For B2, in assay [3], the “phenotype of T1 plants” value is “symptoms of severe ABA insensitivity, including dwarf stature and high sensitivity to water deficit”.
